Assay results reported in PMC3696110, “Hsp70 Oligomerization Is Mediated by an Interaction between the Interdomain Linker and the Substrate-Binding Domain” (PLoS ONE, 2013).

What was measured:
[1] = previously reported; ref [S3]; cited from earlier work
Protocol: Supplementary file pone.0067961.s005.tif: Figure S4 Concentration dependency of the analytical SEC chromatograms of the 'C-term' variant. The protein concentrations used were 1µM (black line), 2µM (orange line), 5 µM (pink line), 10 µM (cyan line), 70 µM (red line) and 125 µM (green line). Essentially the same elution profile was found for all the protein concentrations used. At the top the chromatogram the previously reported Stokes radii of the standard proteins used to calibrate the column are reported: conalbumin (40.4 Å), ovalbumin (30.5 Å), carbonic anhydrase (23.6 Å) [S3], ribonuclease ...

[2] = Thermal denaturation monitored by far-UV CD; type: physicochemical, human
Protocol: Protein structural stability was analyzed by monitoring the CD signal at 222 nm upon thermal denaturation. Thermal runs were performed from 5 to 90 °C at a rate of 1 °C. min^-1. Data points were acquired every 0.1 °C with a response time of 2 s and a bandwidth of […]. After thermal denaturation, each protein sample was cooled to the starting temperature, and a second denaturation curve recorded in order to analyse the degree of reversibility of the denaturation process. Analysis of the thermal unfolding curves was performed assuming a three-state unfolding model.

[3] = Secondary structure content from far-UV CD; type: physicochemical, human; conditions: K2D software; 20 µM protein, 7 mM Tris pH 7.4, 170 mM KCl, 5 mM MgCl2; 25 °C
Protocol: Far-UV CD spectra for all protein variants were recorded using a Jasco J-810 spectropolarimeter equipped with a Peltier holder, using a 0.1 cm path length cuvette. Typically, samples contained 20 µM protein in 7 mM Tris buffer at pH 7.4, containing 170 mM KCl and 5 mM MgCl2. The far-UV CD spectra of all the variants in their native, thermally denatured and refolded states were recorded from 198 to 250 nm, and the spectrum of the buffer was systematically subtracted from the spectra of all protein samples. The secondary structure content was estimated from the far-UV CD spectrum for each protein variant using K2D software.

[4] = Analytical SEC relative populations of oligomeric forms; type: physicochemical, human; conditions: Superdex 75, 4 °C, 50 mM Tris pH 7.4, 150 mM KCl
Protocol: (§1) Analytical SEC was performed at 4 °C using a Superdex 75 10/300 GL column (GE Healthcare LifeSciences, Little Chalfont, U.K.), which had previously been calibrated using a mixture of standard proteins (Gel Filtration LMW Calibration Kit; GE Healthcare LifeSciences, Little Chalfont, U.K.). Typically, samples of the various constructs contained 70 µM of protein in 50 mM Tris buffer at pH 7.4, with 150 mM KCl, 5 mM MgCl2 and were incubated for 15 min (unless otherwise specified) at room temperature before being loaded onto the column for analysis. To evaluate the reversibility of the oligomerization process, the different elution peaks obtained for each protein variant were subsequently analyzed after concentrating the different fractions using AmiconUltra-0.5, Ultracel-3 Membrane, 3 kDa (Millipore, Bedford, MA, USA). A similar analysis was also performed at 6 µM concentration for all the protein variants to allow for a direct comparison between the results obtained by SEC and MS experiments.
The influence of substrate binding on the oligomerization properties of all the variants was examined by using the well-characterized Hsp70 substrate, the NR peptide (NRLLLTG, Genemed Synthesis Inc., San Antonio, TX, USA). A 14-fold excess of the peptide was added in each case to a fresh protein sample, incubated for 1 h at room temperature, unless otherwise specified, and then loaded onto the Superdex 75 10/300 GL column for analysis. The relative quantities of the different protein species were estimated by analysing the chromatographic profile using a Gaussian function for each elution peak (OriginPro 8, Originlab, Northampton, MA, USA) and measuring the relative area under each peak.

[5] = Tryptophan (W580) fluorescence emission; type: physicochemical, human; conditions: W580, excitation 295 nm
Protocol: Steady-state tryptophan fluorescence emission spectra of native, thermally denatured and refolded proteins were recorded from 300 to 400 nm, selectively exciting the only tryptophan residue in the SBD (W580) at 295 nm, using a Cary Eclipse spectrofluorimeter (Varian, Palo Alto, CA, USA). Excitation and emission band-passes were set to 5 nm each.

[6] = nESI-MS relative populations of oligomeric forms; type: physicochemical, human; conditions: 6-15 µM protein, 150 mM ammonium acetate, pH 7.4, estimated error 5% (SD of 3-4 independent experiments)
Protocol: Prior to MS analysis, samples were buffer exchanged into 150 mM ammonium acetate, pH 7.4, using Micro Bio-spin 6 columns (Bio-Rad, Digilab Division, Cambridge, MA, USA). For all the experiments protein concentrations ranging from 6 to 18 µM were used. In the case of the substrate binding experiments, proteins were analyzed in the presence of a 1: 1 molar ratio of the NR peptide; this substrate concentration, lower than in the SEC experiments, was chosen to ensure adequate resolution of the various charge state series, which is critical for unambiguous assignment of substrate-bound states. Due to suppression effects during nESI ionization, a relatively limited set of molar ratios could be investigated by in this way.
nESI-MS spectra were obtained according to a previously published protocol on an orthogonal time-of-flight mass spectrometer with a Z-spray source (LCT, Waters, Manchester, UK) in positive ion mode using the following parameters: capillary voltage, 1500 V; sample cone voltage, 120 V (unless otherwise specified); extraction cone voltage, 1V; and ion transfer stage pressure, 8.8 mbar. Spectra were calibrated externally using a 33 mg/ml solution of cesium iodide. Data were acquired and processed with MassLynx software (Waters, Manchester, UK), and are shown with minimal smoothing and without background subtraction. The relative abundances of the different oligomeric states were estimated from the intensities of the most abundant charge states for each construct and are expressed as a percentage of the total intensity.

[7] = Analytical SEC, Stokes radius and oligomeric state; type: physicochemical, human
Protocol: as §1

[8] = 70 µM protein, 5 mM MgCl2, 15 min at room temperature, estimated error 3.5% (SD of 3-4 independent experiments)
[9] = 6-15 µM protein, 5 mM MgCl2, estimated error 3.5% (SD of 3-4 independent experiments)

B1: ovalbumin: SEC standard protein (protein, UniProt P01012 2-386, looked up)
Ovalbumin: GSIGAASMEFCFDVFKELKVHHANENIFYCPIAIMSALAMVYLGAKDSTRTQINKVVRFDKLPGFGDSIEAQCGTSVNVHSSLRDILNQITKPNDVYSFSLASRLYAEERYPILPEYLQCVKELYRGGLEPINFQTAADQARELINSWVESQTNGIIRNVLQPSSVDSQTAMVLVNAIVFKGLWEKAFKDEDTQAMPFRVTEQESKPVQMMYQIGLFRVASMASEKMKILELPFASGTMSMLVLLPDEVSGLEQLESIINFEKLTEWTSSNVMEERKIKVYLPRMKMEEKYNLTSVLMAMGITDVFSSSANLSGISSAESLKISQAVHAAHAEINEAGREVVGSAEAGVDAASVSEEFRADHPFLFCIKHIATNAVLFFGRCVSP
With B1 as the molecule, how does the “Stokes radius of SEC standard protein” value [1] read?
Its value is 30.5 Å.

B2: conalbumin: SEC standard protein (protein, UniProt P02789 20-705, looked up)
Ovotransferrin: APPKSVIRWCTISSPEEKKCNNLRDLTQQERISLTCVQKATYLDCIKAIANNEADAISLDGGQAFEAGLAPYKLKPIAAEVYEHTEGSTTSYYAVAVVKKGTEFTVNDLQGKTSCHTGLGRSAGWNIPIGTLLHRGAIEWEGIESGSVEQAVAKFFSASCVPGATIEQKLCRQCKGDPKTKCARNAPYSGYSGAFHCLKDGKGDVAFVKHTTVNENAPDQKDEYELLCLDGSRQPVDNYKTCNWARVAAHAVVARDDNKVEDIWSFLSKAQSDFGVDTKSDFHLFGPPGKKDPVLKDLLFKDSAIMLKRVPSLMDSQLYLGFEYYSAIQSMRKDQLTPSPRENRIQWCAVGKDEKSKCDRWSVVSNGDVECTVVDETKDCIIKIMKGEADAVALDGGLVYTAGVCGLVPVMAERYDDESQCSKTDERPASYFAVAVARKDSNVNWNNLKGKKSCHTAVGRTAGWVIPMGLIHNRTGTCNFDEYFSEGCAPGSPPNSRLCQLCQGSGGIPPEKCVASSHEKYFGYTGALRCLVEKGDVAFIQHSTVEENTGGKNKADWAKNLQMDDFELLCTDGRRANVMDYRECNLAEVPTHAVVVRPEKANKIRDLLERQEKRFGVNGSEKSKFMMFESQNKDLLFKDLTKCLFKVREGTTYKEFLGDKFYTVISSLKTCNPSDILQMCSFLEGK
For B2, which “Stokes radius of SEC standard protein” value [1] is on record?
The value was 40.4 Å.

B3: ribonuclease A: SEC standard protein (protein, UniProt P61823 27-150, looked up)
Ribonuclease pancreatic: KETAAAKFERQHMDSSTSAASSSNYCNQMMKSRNLTKDRCKPVNTFVHESLADVQAVCSQKNVACKNGQTNCYQSYSTMSITDCRETGSSKYPNCAYKTTQANKHIIVACEGNPYVPVHFDASV
For B3, which “Stokes radius of SEC standard protein” value [1] is on record?
Its value is 16.4 Å.

B4: C-term: truncated human Hsp70 (540-641), C-terminal segment of helix B, helices C-E and disordered C-terminal region (protein, UniProt P0DMV8 540-641, looked up, fragment)
chain: NALESYAFNMKSAVEDEGLKGKISEADKKKVLDKCQEVISWLDANTLAEKDEFEHKRKELEQVCNPIISGLYQGAGGPGPGGFGAQGPKGGSGSGPTIEEVD
For B4, which “∆Hm, 1st transition” value ([2]; CD 222 nm, 20 µM protein, 7 mM Tris pH 7.4, 170 mM KCl, 5 mM MgCl2, three-state fit (C-term two-state), SE of fit) is on record?
The value was 51.5 ± 1.5 kcal/mol.

What about the “Tm, 1st transition” value ([2]; CD 222 nm, 5 to 90 °C at 1 °C/min, 20 µM protein, 7 mM Tris pH 7.4, 170 mM KCl, 5 mM MgCl2, three-state fit (C-term two-state), SE of fit) of the same molecule?
The value was 49.9 ± 0.2 °C.

And the “Reversibility of thermal unfolding” value ([2]; far-UV CD, second denaturation curve after cooling)?
The value was “reversibly”.

And the “Random-coil content estimated from far-UV CD” value [3]?
Its value is 33%.

What about the “α-helix content estimated from far-UV CD” value [3] of the same molecule?
The value was 60%.

And the “β-sheet content estimated from far-UV CD” value [3]?
The value was 7%.

And the Dimer population [4, 8]?
The Dimer population was 0%.

What about the Monomer population [4, 8] of the same molecule?
Its Monomer population is 100%.

And the Total oligomer population [4, 8]?
The Total oligomer population was 0%.

What about the Dimer population [4, 9] of the same molecule?
The Dimer population was 0%.

And the Monomer population [4, 9]?
Its Monomer population is 100%.

And the Total oligomer population [4, 9]?
Its Total oligomer population is 0%.

And the “Red-shift of fluorescence emission maximum, native to refolded” value [5]?
The value was “not observed”.

What about the Dimer population [6] of the same molecule?
The Dimer population was 0%.

And the Total oligomer population [6]?
Its Total oligomer population is 0%.

What about the Trimer population [6] of the same molecule?
The Trimer population was 0%.

What about the Oligomeric state ([7]; analytical SEC, 1 to 125 µM, single elution peak at 11.8 ml) of the same molecule?
The Oligomeric state was “monomeric”.

And the Stokes radius ([7]; analytical SEC, from retention volume)?
The Stokes radius was 21.4 Å.

And the “Ability to dimerize in isolation” value ([7]; under experimental conditions used)?
The value was “unable to dimerize in isolation”.
